# Test results taken from the DeepSol protein solubility set.
# Experiment: soluble on expression in E. coli; label from the status in PepcDB or PDB records
row,Sequence,soluble on expression in E. coli
1,WSAEDKHKEGVNSHLWIVNRAIDIMSRNTTLVKQDRVAQLNEWRTELENGIYAANYENPYYDNSTFASHFYDPDNGKTYIPFAKQAKETGAKYFKLAGESYKNKDMKQAFFYLGLSLHYLGDVNQPMHAANFTNLSYPQGFHSKYENFVDTIKDNYKVTDGNGYWNWKGTNPEEWIHGAAVVAKQDYSGIVNDNTKDWFVKAAVSQEYADKWRAEVTPMTGKRLMDAQRVTAGYIQLWFDTYGDR,soluble
2,WVFFVEDGETIRVRLRSKGPVINTVAMEHNGGGHPMAAGAKAKSWEETDKIV,soluble
3,YDTVIRNRQTNDVNYLKRLAKKFGFSETQFMTTYQSSELAANLDEERQVVSRLKINQLPAYVVTYNEQSYVIKGVLKYKEWLDIIQQITN,not soluble
4,YHHSVVVGNLSEAACESIGENGLLARVGSYYHDLGKTRRPHFFIENQMKMENPHDRISPQLSATIIISHPYDGAKMLKEYKMPKEIIDIAEQHHGTSLLKYFYHKAQQESDQEVEETSFRYPGPKAQSKVAAIVGIADSVEA,soluble
5,YTDKYDKINLQEILENKRLLESYMDCVLGKGKCTPEGKELKDHLQEALETGCEKCTEAQEKGAETSIDYLIKNELEIWKELTAHFDPDGKWRKKYEDRAKAKGIVIPE,soluble
